Source: patent publication US20090118184A1 (UNIVERSITY OF ROCHESTER, published 2009)
Residue numbers refer to the chain shown, from its start.

Experiments:
Experiment in all cases: cell-based or functional assay
[1] = biological target: T1, factor VIIIa A1/A3C1C2 dimer, H281A (human, UniProt P00451 20-391; P00451 1709-2351)
T1 chain 1: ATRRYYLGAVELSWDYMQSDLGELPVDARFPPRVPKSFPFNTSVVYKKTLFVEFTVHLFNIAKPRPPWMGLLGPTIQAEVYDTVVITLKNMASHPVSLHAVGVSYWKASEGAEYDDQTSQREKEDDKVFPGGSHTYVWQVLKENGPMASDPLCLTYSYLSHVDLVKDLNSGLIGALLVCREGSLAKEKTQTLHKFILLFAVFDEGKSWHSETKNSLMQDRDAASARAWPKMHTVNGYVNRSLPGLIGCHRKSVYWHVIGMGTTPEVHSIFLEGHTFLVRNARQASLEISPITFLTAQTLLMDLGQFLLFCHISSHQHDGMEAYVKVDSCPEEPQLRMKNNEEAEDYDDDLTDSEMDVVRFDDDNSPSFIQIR
T1 chain 2: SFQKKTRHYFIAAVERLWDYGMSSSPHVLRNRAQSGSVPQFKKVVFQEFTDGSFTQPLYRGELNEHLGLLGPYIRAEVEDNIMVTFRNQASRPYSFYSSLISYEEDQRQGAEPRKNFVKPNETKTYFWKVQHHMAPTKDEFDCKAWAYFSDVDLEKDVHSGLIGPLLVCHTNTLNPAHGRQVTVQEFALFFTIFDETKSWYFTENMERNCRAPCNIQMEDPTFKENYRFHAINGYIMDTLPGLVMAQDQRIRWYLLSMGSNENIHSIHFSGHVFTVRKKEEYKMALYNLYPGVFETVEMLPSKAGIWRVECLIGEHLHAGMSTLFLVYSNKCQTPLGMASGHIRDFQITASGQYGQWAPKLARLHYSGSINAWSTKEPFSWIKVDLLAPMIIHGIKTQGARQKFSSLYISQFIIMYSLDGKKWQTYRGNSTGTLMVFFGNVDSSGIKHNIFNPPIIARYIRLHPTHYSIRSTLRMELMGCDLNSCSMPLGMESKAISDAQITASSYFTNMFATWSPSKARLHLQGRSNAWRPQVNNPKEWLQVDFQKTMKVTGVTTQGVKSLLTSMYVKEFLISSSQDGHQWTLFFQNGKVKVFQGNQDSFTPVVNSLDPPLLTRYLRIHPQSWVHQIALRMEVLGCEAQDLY

[2] = biological target: T2, factor VIIIa A1/A3C1C2 dimer, R1966A (human, UniProt P00451 20-391; P00451 1709-2351)
T2 sequence 1: T1 chain 1 with A281H
T2 sequence 2: T1 chain 2 with R277A

[3] = biological target: T3, factor VIIIa A1/A3C1C2 dimer, S1949A (human, UniProt P00451 20-391; P00451 1709-2351)
T3 sequence 1: T1 chain 1 with A281H
T3 sequence 2: T1 chain 2 with S260A

B1: factor VIIIa A2 subunit, wild type (other)
chain: SVAKKHPKTWVHYIAAEEEDWDYAPLVLAPDDRSYKSQYLNNGPQRIGRKYKKVRFMAYTDETFKTREAIQHESGILGPLLYGEVGDTLLIIFKNQASRPYNIYPHGITDVRPLYSRRLPKGVKHLKDFPILPGEIFKYKWTVTVEDGPTKSDPRCLTRYYSSFVNMERDLASGLIGPLLICYKESVDQRGNQIMSDKRNVILFSVFDENRSWYLTENIQRFLPNPAGVQLEDPEFQASNIMHSINGYVFDSLQLSVCLHEVAYWYILSIGAQTDFLSVFFSGYTFKHKMVYEDTLTLFPFSGETVFMSMENPGLWILGCHNSDFRNRGMTALLKVSSCDKNTGDYYEDSYEDISAYLLSKNNAIEPR
[1]
  Factor VIIIa decay rate relative to wild type, FIXa (+): 3.99 relative to wild type
  Factor VIIIa decay rate, FIXa (+): 0.045 min⁻¹
[2]
  Factor VIIIa decay rate relative to wild type, FIXa (+): 1.44 relative to wild type
  Factor VIIIa decay rate, FIXa (+): 0.0163 min⁻¹
[3]
  Factor VIIIa decay rate relative to wild type, FIXa (+): 1.14 relative to wild type
  Factor VIIIa decay rate, FIXa (+): 0.0129 min⁻¹
